Columns and labels:
[1] = target: UbL-mCherry-FRB-MBP proteasome adaptor
[2] = target: UbL-mCherry-GAI(1-92) proteasome adaptor (UniProt Q9LQT8)

depletion of the GFP target (GFP fluorescence by flow cytometry) in HEK293 cells after 4 h with 1, 2 or 5 uM rapalog; dimerisation bridged by rapalog [1]	depletion of the GFP target (GFP fluorescence by flow cytometry) in HEK293 cells after 24 h with 10 to 50 uM and higher GA3-AM; dimerisation bridged by gibberellin GA3 [2]	Substance
90%	–	FKBP-GFP-tail target protein
–	80%	GID1-GFP-tail target protein
